Source: patent publication US8507431B2, “Methods for accelerating wound healing by administration of a preadipocyte modulator or an adipocyte modulator” (HealOr Ltd., priority 2003, dated 2013)

Tests used:
primary keratinocytes [1] = assay: Keratinocytes migration (wound scratch) assay in vitro; type: cell-based, murine
Procedure: (§1) Primary keratinocytes were isolated from newborn skin as described in reference 18. Keratinocytes were cultured in Eagle's Minimal Essential Medium (EMEM) containing 8% Chelex (Chelex-100, BioRad) treated fetal bovine serum. To maintain a proliferative basal cell phenotype, the final Ca^2+ concentration was adjusted to 0.05 mM. Experiments were performed five to seven days after plating.
Primary mouse keratinocytes were untreated or treated with, PPARγ antagonist GW9662 (μM) or PPARγ agonist troglitazone (μM). Wound Scratch Assay was performed 24 hours following treatment, and representative fields were photographed immediately after the wounding (Day 0) and 48 hours later (Day 2). The average of wound closure represented as percentage in comparison to the initial width of the wound scratch (% of wound closure).
The effect of inhibiting or enhancing the activity of peroxisome proliferators-activated receptor gamma (PPARγ) on keratinocytes migration was evaluated utilizing the in vitro migration assay. Thus, primary keratinocytes were isolated and plated on 5 ml non-coated dishes until confluence in low Ca^2+ medium, and an artificial crossover scratch was formed in each dish with a 200 μm tip. Cells were either non-treated (control) or treated daily with PPARγ modulators.
In order to test the effect of different adipokines on keratinocyte migration to close the wound gap, an in vitro scratch assay was used. Thus, primary keratinocytes were isolated and plated on 5 ml non-coated dishes until confluence in low Ca^2+ medium, and an artificial crossover scratch was formed in each dish with a 200 μm tip. Cells were either non-treated (control) or treated daily with insulin (0.1 unit/ml), hIL-4 (2 ng/ml), hIL-6 (0.2 ng/ml), leptin (4 μg/ml) or apelin (0.02 μg/ml or 0.2 μg/ml).
Primary keratinocytes/fibroblasts were isolated and plated on 5 ml non-coated dishes until confluence in low Ca^2+ medium, and an artificial cross-over scratch was formed in each dish with a 200 μm tip. […]

primary skin fibroblasts = assay: Fibroblasts scratch migration assay in vitro; type: cell-based; conditions: 24 hrs; for fibroblasts migration to close the wound gap vs non-treated and insulin: hIL-8 5 ng/ml, hIL-1β 0.2 ng/ml, hIL-4 2 ng/ml, apelin 0.2 μg/ml, adiponectin 1 μg/ml
Procedure: Primary skin fibroblasts were isolated and plated on 5 ml non-coated dishes until confluence in low Ca^2+ medium, and an artificial crossover scratch was formed in each dish with a 200 μm tip. Cells were either non-treated (control) or treated with insulin (0.1 unit/ml), hIL-8 (5 ng/ml), hIL-1β (0.2 ng/ml), hIL-4 (2 ng/ml), apelin (0.2 μg/ml) or adiponectin (1 μg/ml); and collected after 24 hrs.
Primary keratinocytes/fibroblasts were isolated and plated on 5 ml non-coated dishes until confluence in low Ca^2+ medium, and an artificial cross-over scratch was formed in each dish with a 200 μm tip. Then, cells were either non-treated or treated with visfatin (0.1 μg/ml or 0.0.1 μg/ml) or insulin (0.1 unit/ml) for up to 48 hrs.

[2] = tested on: Full thickness wounds on the back of C57BL mice; assay: Wound healing assay, full thickness incision wounds in mice; type: in vivo
Procedure: […] […] Wound biopsies were sampled, processed and analyzed morphologically and/or histochemically and/or immunohistochemically for various wound healing parameters, i.e., wound contraction, adipocytes migration and differentiation, epidermal migration, and epidermal closure.
The wound area was measured and compared to untreated control wounds; and wound contraction was calculated as the percent reduction of the wound area.
Wound biopsies were fixed in 4% paraformaldehyde then dehydrated in increasing concentrations of ethanol (50-100%). The dehydrated preparations were immersed first in xylene, then paraffin and xylene 1:1 solution, then in pure melted paraffin (60° C.). The paraffin blocks were then sectioned by a microtome and the sections were mounted on Super Frost^+™ slides.
Paraffin embedded wound-section slides were incubated at 60° C. for 60 minutes and were de-parafinated by washing the slides twice with toluene (100%) for 10 minutes, then rehydrated in decreasing concentration of ethanol (100-50%) for 5 minutes each. The slides were stained with hematoxylin (ready to use solution) for 10 minutes, rinsed with water, stained with eosin (0.5% in DDW) for 5 minutes, and then washed with 70% ethanol by 2 quick immersions. Thereafter, the slides were dehydrated by washing once with 95% ethanol for 2 minutes, twice with 100% ethanol for 5 minutes, and twice with xylene (100%) for 10 minutes, then mounted with entellan (MERCK Darmstadt Germany).
Paraffin embedded wound-section slides were de-parafinated as described for H&E staining above and incubated in blocking solution (5% BSA and 0.5% Tween 20™ in PBS) for 1 hour. […]
The effect of inhibiting or enhancing the activity of PPARγ using PPARγ antogonist and agonist, respectively, on wound healing was also evaluated in vivo. […]
The effect of adipsin (complementing Factor D, which is secreted from adipocytes) on wound healing was evaluated in vivo. […] The mice were sacrificed 6 days after wounding and the wounds were then analyzed. […]

primary keratinocytes [3] = assay: Western blot analysis for PCNA expression (proliferation marker); type: cell-based, murine; conditions: visfatin 0.01 μg/ml, 24 hrs post treatment
Procedure: as §1
(§2) Primary keratinocytes were isolated, plated on 100 mm tissue dishes and maintained for 5 days in medium with low Ca^+ (0.05 mM) until 80% confluence. Then, cells were either non-treated (control) or treated with insulin (0.1 unit/ml, 1 μM) or visfatin (0.01 μg/ml or 0.1 μg/ml). 24 hrs post treatment cells were lyzed and analyzed for PCNA expression by western blot analysis.

primary keratinocytes [4] = assay: Thymidine incorporation assay; type: cell-based, murine
Procedure: as §1
Primary keratinocytes were isolated, plated on 6 well tissue dishes and maintained for 5 days in medium with low Ca^2+ (0.05 mM) until 80% confluence. Then, cells were either non-treated (control) or treated with visfatin (0.1 μg/ml or 0.01 μg/ml) for 24 hrs. 6 hrs post treatment Ca^2+ mM was added to the medium, and the next day, cells were pulsed with [^3H]thymidine (1 uCi/ml) for 1 hour. After incubation, cells were washed three times with PBS and 5% trichloroacetic acid (TCA) was added into each well for 1 hour. The solution was then removed and cells were stabilized in 1M NaOH. The labeled thymidine incorporated into the cells was counted in a ^3H-window of a Tricarb liquid scintillation counter.

primary keratinocytes [5] = assay: Differentiation assay for Keratin 1 (western blot); type: cell-based, murine; conditions: visfatin 0.01 or 0.1 μg/ml, 24 hrs; vs non treated and insulin treated cells
Procedure: as §1
as §2, with “low Ca^2+” for “low Ca^+”, “were lysed” for “were lyzed”, “for K1 (Keartin 1)” for “for PCNA”

primary keratinocytes [6] = assay: Differentiation assay for filaggrin (western blot); type: cell-based, murine; conditions: visfatin 0.01 and 0.1 μg/ml, 24 hrs
Procedure: as §1
Primary keratinocytes were isolated, plated on 100 mm tissue dishes and maintained for 5 days in medium with low Ca^2+ (0.05 mM) until reaching 80% confluence. Then, cells were either non-treated (control) or treated with visfatin (0.01 μg/ml or 0.1 μg/ml). Terminal differentiation was induced by adding Ca^2+ to the medium 6 hrs post treatment. 24 hrs post treatment cells were lysed and analyzed for filaggrin expression by western blot analysis.

[7] = visfatin 0.01 μg/ml daily for 7 days

B1: IL-4: adipokine hIL-4 (protein, UniProt P05112 25-153, looked up)
Interleukin-4: HKCDITLQEIIKTLNSLTEQKTLCTELTVTDIFAASKNTTEKETFCRAATVLRQFYSHHEKDTRCLGATAQQFHRHKQLIRFLKRLDRNLWGLAGLNSCPVKEANQSTLENFLERLKTIMREKYSKCSS
B1 was tested, and the “keratinocyte migration in scratch assay vs control and insulin” value (primary keratinocytes [1]; treated daily, 24 and 48 hrs, hIL-4 2 ng/ml, apelin 0.2 μg/ml) was “keratinocyte migration was highly significant” and the “fibroblasts migration to close the wound gap vs non-treated and insulin” value (primary skin fibroblasts) was “did not induce any additional effect compared to controls”.

B2: adiponectin (protein, UniProt Q15848 19-244, looked up)
Adiponectin: ETTTQGPGVLLPLPKGACTGWMAGIPGHPGHNGAPGRDGRDGTPGEKGEKGDPGLIGPKGDIGETGVPGAEGPRGFPGIQGRKGEPGEGAYVYRSAFSVGLETYVTIPNMPIRFTKIFYNQQNHYDGSTGKFHCNIPGLYYFAYHITVYMKDVKVSLFKKDKAMLFTYDQYQENNVDQASGSVLLHLEVGDQVWLQVYGEGERNGLYADNDNDSTFTGFLLYHDTN
notes: adipokine
With B2 the “healing parameters (epidermal closure, dermal contraction, matrix remodeling)” value ([2]; adiponectin 1 μg/ml daily for 7 days, 20 mm incision, H&E and Masson Trichrome) was “better healing parameters” and the “fibroblasts migration to close the wound gap vs non-treated and insulin” value (primary skin fibroblasts) was “promoted fibroblasts migration to completely close the wound gap”.

B3: visfatin (protein, UniProt P43490 1-491, looked up)
Nicotinamide …: MNPAAEAEFNILLATDSYKVTHYKQYPPNTSKVYSYFECREKKTENSKLRKVKYEETVFYGLQYILNKYLKGKVVTKEKIQEAKDVYKEHFQDDVFNEKGWNYILEKYDGHLPIEIKAVPEGFVIPRGNVLFTVENTDPECYWLTNWIETILVQSWYPITVATNSREQKKILAKYLLETSGNLDGLEYKLHDFGYRGVSSQETAGIGASAHLVNFKGTDTVAGLALIKKYYGTKDPVPGYSVPAAEHSTITAWGKDHEKDAFEHIVTQFSSVPVSVVSDSYDIYNACEKIWGEDLRHLIVSRSTQAPLIIRPDSGNPLDTVLKVLEILGKKFPVTENSKGYKLLPPYLRVIQGDGVDINTLQEIVEGMKQKMWSIENIAFGSGGGLLQKLTRDLLNCSFKCSYVVTNGLGINVFKDPVADPNKRSKKGRLSLHRTPAGNFVTLEEGKGDLEEYGQDLLHTVFKNGKVTKSYSFDEIRKNAQLNIELEAAHH
notes: insulin-mimetic hormone secreted from visceral adipose tissue
In the case of B3, the “adipocytes at the wound site” value [2, 7] is reported as “attracts adipocytes to the wound site”, the “inflammation in the wound” value [2, 7] is reported as “reduces inflammation” and the “migration of keratinocytes relative to controls” value (primary keratinocytes [1]; visfatin 0.1 μg/ml or 0.01 μg/ml, up to 48 hrs) is reported as “does not halt or interfere with migration of keratinocytes”. The migration of keratinocytes (primary keratinocytes [1]; visfatin 0.1 μg/ml, 48 hrs) was “induced migration in keratinocytes though not significantly”, the “fibroblast migration and proliferation” value (primary skin fibroblasts; visfatin 0.01 μg/ml, insulin 0.1 unit/ml as comparison) was “promotes fibroblast migration and proliferation to the extent of insulin treatment” and the “PCNA expression levels in keratinocytes” value (primary keratinocytes [3]) was “significantly decreased”. For the same molecule, the “proliferation rate under conditions promoting cell differentiation” value (primary keratinocytes [4]; Ca2+ 0.12 mM addition to the medium, visfatin 0.1 or 0.01 μg/ml) was “inhibited even further”, the “thymidine incorporation (proliferation)” value (primary keratinocytes [4]; visfatin 0.01 μg/ml vs 0.1 μg/ml and controls, 24 hrs) was “lower thymidine incorporation than the higher dose (0.1 μg/ml) and controls” and the “keratinocyte differentiation (Keratin 1 expression)” value (primary keratinocytes [5]) was “promotes keratinocyte differentiation primarily terminal differentiation”. The “filaggrin levels (terminal differentiation)” value (primary keratinocytes [6]) was “marked elevation in filaggrin levels”.
